Results taken from publication doi:10.1101/2022.04.25.489454.
Like-named read-outs stand apart in the source and are kept apart here.

Key:
[1] = molecular target: full length human GFP-CLASP2α (human) (UniProt O75122); experiment: optical trap rupture force
[2] = molecular target: full length human GFP-CLASP2α (human) (UniProt O75122); experiment: TIRF microscopy of microtubules tethered to protein clusters on DNA origami
[3] = molecular target: stabilized microtubules polymerised from cow brain tubulin (cow (purified from cow brains)) (UniProt Q6B856); experiment: TIRF microscopy of GFP-protein decoration of immobilized microtubules
[4] = molecular target: stabilized microtubules polymerised from cow brain tubulin (cow (purified from cow brains)) (UniProt Q6B856); experiment: as above; remark: listed apart in the source

stabilized microtubules polymerised from cow brain tubulin (from UniProt Q6B856 1-445) (complex)
pulling force at 50% survival of the attachment [1]: 14 pN | pulling force withstood without rupture (13 of 39 microtubules) [1]: > 15.2 pN | time for which half of the microtubules stay attached by their end [2]: 4 h

full length human GFP-CLASP2α (from UniProt O75122-3 1-1515) (natural protein)
Kd [3]: 0.5 nM | end brightness [3]: 594 a.u.

B1: GFP-L-TOG2-S (domain or fragment)
chain: KVPAPKTSGNPANSARKPGSAGGPKVGAGASKEGGAGAVDEDDFIKAFTDVPSIQIYSSRELEETLNKIREILSDDKHDWDQRANALKKIRSLLVAGAAQYDCFFQHLRLLDGALKLSAKDLRSQVVREACITVAHLSTVLGNKFDHGAEAIVPTLFNLVPNSAKVMATSGCAAIRFIIRHTHVPRLIPLITSNCTSKSVPVRRRSFEFLDLLLQEWQTHSLERHAAVLVETIKKGIHDADAEARVEARKTYMGLRNHFPGEAETLYNSLEPSYQKSLQTYLKSSGSVASLPQSDRSSSSSQESLNRPFSSKWSTANPSTVAGRVSAGSSKASSLPGSLQRSRSDIDVNAAAGAKAHHAAGQSVRSGRLGAGALNAGSYASLEDTSDKLDGTASEDGRVRAKLSAPLAGMGNAKADSRGRSRTKMVSQSQPGSRSGSPGRVLTTTALSTVSSGVQRVLVNSASAQKRSKIPRSQGCSREASPSRLSVARSSRIPRPSVSQGCSREASRESSRDTSPVRSFQPLGPGYGISQSS
end brightness [4]: 757 a.u.
